Source: PMC10509167, “Identification and characterization of endo-α-, exo-α-, and exo-β-D-arabinofuranosidases degrading lipoarabinomannan and arabinogalactan of mycobacteria” (Nature Communications, 2023)
One block for each substance: values may come before it.

How the values were obtained:
[1] = biological target: ExoMA1 (MIAR_33200), GH172 exo-α-D-arabinofuranosidase from Microbacterium arabinogalactanolyticum, recombinant (Microbacterium arabinogalactanolyticum JCM 9171); test: negative-stain transmission electron microscopy; purified ExoMA1 0.1 mg/mL in 10 mM Tris-HCl (pH 7.5), 500 mM NaCl, on carbon-coated copper grids, 2% uranyl acetate, 120 kV
[2] = biological target: ExoMA1 (MIAR_33200), GH172 exo-α-D-arabinofuranosidase from Microbacterium arabinogalactanolyticum, recombinant (Microbacterium arabinogalactanolyticum JCM 9171); test: crystal structure; ExoMA1 apo form, 2.42 Å; dodecamer in the asymmetric unit; sitting-drop vapor diffusion, 20 °C
[3] = biological target: ExoMA1 (MIAR_33200), GH172 exo-α-D-arabinofuranosidase from Microbacterium arabinogalactanolyticum, recombinant (Microbacterium arabinogalactanolyticum JCM 9171); test: SEC; SEC of ExoMA1 in solution (Supplementary Fig. 19a)
[4] = biological target: EndoMA1 D51N catalytic residue mutant (Microbacterium arabinogalactanolyticum JCM 9171); test: crystal structure; EndoMA1 D51N co-crystallised with 10 mM A9LT, 1.80 Å; microseeding, 30 °C; four chains (A-D) in the asymmetric unit
[5] = biological target: EndoMA1 (MIAR_33230), GH183 (DUF4185) endo-D-arabinanase from Microbacterium arabinogalactanolyticum, recombinant wild type (Microbacterium arabinogalactanolyticum JCM 9171); test: crystal structure; EndoMA1 wild type, apo form, 1.60 Å; sitting-drop vapor diffusion, 20 °C
[6] = biological target: EndoMA1 (MIAR_33230), GH183 (DUF4185) endo-D-arabinanase from Microbacterium arabinogalactanolyticum, recombinant wild type (Microbacterium arabinogalactanolyticum JCM 9171); test: SEC-SAXS; SEC-SAXS of EndoMA1 at beamline BL-10C of the Photon Factory, same column and buffer as SEC-MALS/RI; profile compared with the dimeric apo crystal structure
[7] = biological target: EndoMA1 (MIAR_33230), GH183 (DUF4185) endo-D-arabinanase from Microbacterium arabinogalactanolyticum, recombinant wild type (Microbacterium arabinogalactanolyticum JCM 9171); test: SEC-MALS; SEC-MALS/RI of EndoMA1, KW403-4F column (Shodex), DAWN HELEOS II; self-association in solution

stoichiometry N [1]: 12
stoichiometry N [2]: 12
stoichiometry N [3]: > 7
Substance: ExoMA1 (MIAR_33200), GH172 exo-α-D-arabinofuranosidase from Microbacterium arabinogalactanolyticum, recombinant (enzyme)

stoichiometry N [4]: 2
Substance: EndoMA1 D51N catalytic residue mutant (enzyme)

stoichiometry N [5]: 2
stoichiometry N [6]: 2
stoichiometry N [7]: 2
Substance: EndoMA1 (MIAR_33230), GH183 (DUF4185) endo-D-arabinanase from Microbacterium arabinogalactanolyticum, recombinant wild type (enzyme)
